T1: APBA1_1, Q02410
T1 sequence (Q02410 651-752, limits assumed, looked up): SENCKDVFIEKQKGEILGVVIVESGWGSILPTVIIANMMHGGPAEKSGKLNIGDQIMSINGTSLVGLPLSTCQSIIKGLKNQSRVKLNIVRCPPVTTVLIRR

T2: APBA2_1, Q99767
T2 sequence (Q99767 563-664, limits assumed, looked up): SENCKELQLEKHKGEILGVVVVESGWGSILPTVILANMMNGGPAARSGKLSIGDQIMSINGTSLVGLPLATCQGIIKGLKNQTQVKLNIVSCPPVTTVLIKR

T3: APBA2_2, Q99767
T3 sequence (Q99767 654-744, limits assumed, looked up): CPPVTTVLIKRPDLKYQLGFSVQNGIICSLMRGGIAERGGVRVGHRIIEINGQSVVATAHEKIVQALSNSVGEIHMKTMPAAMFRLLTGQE

T4: ARHGEF11, O15085
T4 sequence (O15085 42-136, limits assumed, looked up): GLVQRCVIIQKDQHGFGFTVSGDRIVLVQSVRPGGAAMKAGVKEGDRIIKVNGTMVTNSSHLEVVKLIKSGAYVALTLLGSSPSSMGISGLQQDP

T5: DFNB31_1, Q9P202
T5 sequence (Q9P202 135-233, limits assumed, looked up): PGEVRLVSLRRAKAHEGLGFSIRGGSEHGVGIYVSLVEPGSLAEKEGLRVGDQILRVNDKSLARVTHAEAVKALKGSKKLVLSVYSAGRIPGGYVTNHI

T6: DLG3_3, Q92796
T6 sequence (Q92796 374-475, limits assumed, looked up): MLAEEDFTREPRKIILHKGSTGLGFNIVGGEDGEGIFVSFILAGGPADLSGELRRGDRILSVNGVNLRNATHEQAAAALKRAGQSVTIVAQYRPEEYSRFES

T7: GRIP1_2, Q9Y3R0
T7 sequence (Q9Y3R0 145-248, limits assumed, looked up): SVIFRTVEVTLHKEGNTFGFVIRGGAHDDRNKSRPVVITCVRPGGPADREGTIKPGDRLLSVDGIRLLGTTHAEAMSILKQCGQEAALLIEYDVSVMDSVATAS

T8: GRIP1_5, Q9Y3R0
T8 sequence (Q9Y3R0 568-668, limits assumed, looked up): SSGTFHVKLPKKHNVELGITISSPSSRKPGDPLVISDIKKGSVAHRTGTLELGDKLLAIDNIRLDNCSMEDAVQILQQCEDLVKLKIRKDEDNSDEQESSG

T9: MPDZ_5, O75970
T9 sequence (O75970 695-796, limits assumed, looked up): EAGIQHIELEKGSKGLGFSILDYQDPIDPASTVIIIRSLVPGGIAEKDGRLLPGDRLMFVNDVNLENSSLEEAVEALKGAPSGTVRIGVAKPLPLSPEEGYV

T10: MPP2, Q14168
T10 sequence (Q14168 180-250, limits assumed, looked up): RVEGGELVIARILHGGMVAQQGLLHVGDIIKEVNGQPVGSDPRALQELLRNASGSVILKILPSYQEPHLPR

T11: NHERF3_3, Q5T2W1
T11 sequence (Q5T2W1 238-333, limits assumed, looked up): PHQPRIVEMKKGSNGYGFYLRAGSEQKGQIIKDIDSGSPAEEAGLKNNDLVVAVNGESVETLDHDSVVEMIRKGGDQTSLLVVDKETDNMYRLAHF

T12: SNTB1, Q13884
T12 sequence (Q13884 107-205, limits assumed, looked up): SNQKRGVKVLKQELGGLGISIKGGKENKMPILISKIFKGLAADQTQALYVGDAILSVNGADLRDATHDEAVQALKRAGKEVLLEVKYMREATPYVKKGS


How the values were obtained:
Assay in all cases: holdup assay
Parameters in all cases: key: below the threshold = too weak to quantify, mostly under pKd 3.1 to 4
Conditions in all cases: plain residues with an end cap or a label only (N-terminal biotin on a linker: ado-ado)
APBA1_1, Q02410 = molecular target: T1, APBA1_1, Q02410
APBA2_1, Q99767 = molecular target: T2, APBA2_1, Q99767
APBA2_2, Q99767 = molecular target: T3, APBA2_2, Q99767
ARHGEF11, O15085 = molecular target: T4, ARHGEF11, O15085
CASK, O14936 = molecular target: CASK, O14936
CASK, O14936, sequence (O14936 487-570): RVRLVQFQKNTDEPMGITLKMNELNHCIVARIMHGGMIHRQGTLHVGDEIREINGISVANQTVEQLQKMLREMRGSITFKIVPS

DFNB31_1, Q9P202 = molecular target: T5, DFNB31_1, Q9P202
DLG1_2, Q12959 = molecular target: DLG1_2, Q12959
DLG1_2, Q12959, sequence (Q12959 314-412): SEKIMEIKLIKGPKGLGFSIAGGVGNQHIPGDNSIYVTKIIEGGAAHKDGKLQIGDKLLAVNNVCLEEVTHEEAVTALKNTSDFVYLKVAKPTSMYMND

DLG1_3, Q12959 = molecular target: DLG1_3, Q12959
DLG1_3, Q12959, sequence (Q12959 457-571): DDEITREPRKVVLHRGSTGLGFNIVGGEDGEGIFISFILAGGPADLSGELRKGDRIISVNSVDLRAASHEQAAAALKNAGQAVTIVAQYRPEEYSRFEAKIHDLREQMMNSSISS

DLG3_3, Q92796 = molecular target: T6, DLG3_3, Q92796
DLG4_1, P78352 = molecular target: DLG4_1, P78352
DLG4_1, P78352, sequence (P78352 62-152): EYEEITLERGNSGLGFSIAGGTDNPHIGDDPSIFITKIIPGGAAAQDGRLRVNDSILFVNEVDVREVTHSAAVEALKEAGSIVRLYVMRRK

FRMPD4, Q14CM0 = molecular target: FRMPD4, Q14CM0
FRMPD4, Q14CM0, sequence (Q14CM0 67-160): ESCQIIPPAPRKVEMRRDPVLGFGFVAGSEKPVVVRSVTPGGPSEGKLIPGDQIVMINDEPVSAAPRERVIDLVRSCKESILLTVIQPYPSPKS

GOPC, Q9HD26 = molecular target: GOPC, Q9HD26
GORASP2, Q9H8Y8 = molecular target: GORASP2, Q9H8Y8
GRID2IP_2, A4D2P6 = molecular target: GRID2IP_2, A4D2P6
GRID2IP_2, A4D2P6, sequence (A4D2P6 272-370): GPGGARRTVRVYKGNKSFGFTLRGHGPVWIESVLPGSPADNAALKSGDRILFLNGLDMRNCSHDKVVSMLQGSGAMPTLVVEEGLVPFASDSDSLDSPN

GRIP1_2, Q9Y3R0 = molecular target: T7, GRIP1_2, Q9Y3R0
GRIP1_5, Q9Y3R0 = molecular target: T8, GRIP1_5, Q9Y3R0
IL16_1, Q14005 = molecular target: IL16_1, Q14005
IL16_1, Q14005, sequence (Q14005 210-306): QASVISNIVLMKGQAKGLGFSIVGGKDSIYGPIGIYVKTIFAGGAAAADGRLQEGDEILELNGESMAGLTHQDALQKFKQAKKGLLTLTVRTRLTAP

IL16_3, Q14005 = molecular target: IL16_3, Q14005
IL16_3, Q14005, sequence (Q14005 1107-1207): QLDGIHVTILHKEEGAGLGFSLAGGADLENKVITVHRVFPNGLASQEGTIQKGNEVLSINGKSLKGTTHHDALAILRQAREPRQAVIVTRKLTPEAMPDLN

LNX1_1, Q8TBB1 = molecular target: LNX1_1, Q8TBB1
LNX1_1, Q8TBB1, sequence (Q8TBB1 261-371): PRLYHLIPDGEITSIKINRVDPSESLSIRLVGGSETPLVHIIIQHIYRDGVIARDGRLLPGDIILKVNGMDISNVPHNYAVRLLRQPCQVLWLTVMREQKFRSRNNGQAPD

LNX1_2, Q8TBB1 = molecular target: LNX1_2, Q8TBB1
LNX1_2, Q8TBB1, sequence (Q8TBB1 371-470): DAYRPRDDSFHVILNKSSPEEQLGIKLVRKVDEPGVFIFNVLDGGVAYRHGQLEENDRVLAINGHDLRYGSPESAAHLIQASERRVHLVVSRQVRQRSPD

MPDZ_5, O75970 = molecular target: T9, MPDZ_5, O75970
MPP2, Q14168 = molecular target: T10, MPP2, Q14168
NHERF3_3, Q5T2W1 = molecular target: T11, NHERF3_3, Q5T2W1
NHERF4_4, Q86UT5 = molecular target: NHERF4_4, Q86UT5
NHERF4_4, Q86UT5, sequence (Q86UT5 464-550): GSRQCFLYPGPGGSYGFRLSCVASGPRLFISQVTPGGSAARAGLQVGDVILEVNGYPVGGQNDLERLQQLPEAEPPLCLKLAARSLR

SNTB1, Q13884 = molecular target: T12, SNTB1, Q13884
TJP1_3, Q07157 = molecular target: TJP1_3, Q07157
TJP1_3, Q07157, sequence (Q07157 416-512): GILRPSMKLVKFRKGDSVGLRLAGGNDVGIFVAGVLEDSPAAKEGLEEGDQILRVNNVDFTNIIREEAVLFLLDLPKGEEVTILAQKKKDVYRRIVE

Binder | pKd (APBA1_1, Q02410) | pKd (APBA2_1, Q99767) | pKd (APBA2_2, Q99767) | pKd (ARHGEF11, O15085) | pKd (CASK, O14936) | pKd (DFNB31_1, Q9P202) | pKd (DLG1_2, Q12959) | pKd (DLG1_3, Q12959) | pKd (DLG3_3, Q92796) | pKd (DLG4_1, P78352) | pKd (FRMPD4, Q14CM0) | pKd (GOPC, Q9HD26) | pKd (GORASP2, Q9H8Y8) | pKd (GRID2IP_2, A4D2P6) | pKd (GRIP1_2, Q9Y3R0) | pKd (GRIP1_5, Q9Y3R0) | pKd (IL16_1, Q14005) | pKd (IL16_3, Q14005) | pKd (LNX1_1, Q8TBB1) | pKd (LNX1_2, Q8TBB1) | also measured
VRPGVKESLV [SCN4A, P35499] | below the threshold | below the threshold | below the threshold | below the threshold | below the threshold | 3.73 | 5.64 | 3.97 | 4.1 | 4.98 | below the threshold | below the threshold | below the threshold | 3.64 | below the threshold | below the threshold | 4.78 | below the threshold | 3.89 | below the threshold | pKd (MPDZ_5, O75970): below the threshold; pKd (MPP2, Q14168): below the threshold; pKd (NHERF3_3, Q5T2W1): below the threshold; pKd (NHERF4_4, Q86UT5): 3.96; pKd (SNTB1, Q13884): 5.05; pKd (TJP1_3, Q07157): below the threshold
AEDEEIQTKM [UNC93A, Q86WB7] | below the threshold | below the threshold | below the threshold | below the threshold | below the threshold | below the threshold | below the threshold | below the threshold | below the threshold | below the threshold | 3.63 | below the threshold | below the threshold | 3.77 | below the threshold | below the threshold | below the threshold | below the threshold | below the threshold | below the threshold | pKd (MPDZ_5, O75970): below the threshold; pKd (MPP2, Q14168): below the threshold; pKd (NHERF3_3, Q5T2W1): 4.16; pKd (NHERF4_4, Q86UT5): below the threshold; pKd (SNTB1, Q13884): below the threshold; pKd (TJP1_3, Q07157): below the threshold
RDFDYIADWC [PKN2, Q16513] | 3.67 | below the threshold | below the threshold | 3.68 | 3.54 | 3.69 | below the threshold | below the threshold | below the threshold | below the threshold | below the threshold | below the threshold | 3.87 | below the threshold | 3.7 | below the threshold | below the threshold | below the threshold | below the threshold | 3.83 | pKd (MPDZ_5, O75970): below the threshold; pKd (MPP2, Q14168): 3.49; pKd (NHERF3_3, Q5T2W1): below the threshold; pKd (NHERF4_4, Q86UT5): below the threshold; pKd (SNTB1, Q13884): below the threshold; pKd (TJP1_3, Q07157): 3.89
NRVDSKETEC [ADAM17, P78536] | below the threshold | below the threshold | below the threshold | 3.59 | below the threshold | 3.72 | 4.54 | 3.71 | 3.95 | 4.32 | below the threshold | below the threshold | below the threshold | below the threshold | 3.59 | below the threshold | below the threshold | below the threshold | below the threshold | below the threshold | pKd (MPDZ_5, O75970): below the threshold; pKd (MPP2, Q14168): below the threshold; pKd (NHERF3_3, Q5T2W1): below the threshold; pKd (NHERF4_4, Q86UT5): below the threshold; pKd (SNTB1, Q13884): 4.87; pKd (TJP1_3, Q07157): below the threshold
SVISRREWYV [NECTIN3, Q9NQS3] | below the threshold | below the threshold | below the threshold | 4.55 | 3.75 | below the threshold | 3.52 | below the threshold | 3.71 | below the threshold | 3.97 | below the threshold | 5.1 | 3.49 | below the threshold | below the threshold | 3.88 | below the threshold | below the threshold | 4.59 | pKd (MPDZ_5, O75970): 5.19; pKd (MPP2, Q14168): 4.57; pKd (NHERF3_3, Q5T2W1): below the threshold; pKd (NHERF4_4, Q86UT5): 4.07; pKd (SNTB1, Q13884): below the threshold; pKd (TJP1_3, Q07157): 3.67
LDKESFLTWL [YAP1, P46937] | 4.06 | below the threshold | below the threshold | 5.32 | below the threshold | 3.77 | below the threshold | below the threshold | below the threshold | below the threshold | 5.25 | 3.87 | 4.84 | 4.52 | 3.51 | below the threshold | 3.55 | below the threshold | 4.25 | below the threshold | pKd (MPDZ_5, O75970): below the threshold; pKd (MPP2, Q14168): below the threshold; pKd (NHERF3_3, Q5T2W1): 4.15; pKd (NHERF4_4, Q86UT5): 4.16; pKd (SNTB1, Q13884): below the threshold; pKd (TJP1_3, Q07157): below the threshold

Source: article PMC9482650, “Quantitative fragmentomics allow affinity mapping of interactomes” (Nature Communications, 2022)
